Assay results taken from patent US20250186541A1, “DLL3 TARGETING PEPTIDES AND CONSTRUCTS THEREOF” (MARIANA ONCOLOGY INC., priority 2023, published 2025).
Numbered stars: 1 amine (or outer) side, 2 acyl side, 3 side chain; on linkers, the order of the positions; unused ones are H or OH. Bridge positions count the residues as written; N and C are the ends. Square brackets hold non-standard residues; d marks the D form. * marks the point of attachment. Ala(piperidin-4-yl) = O=C([C@H](CC1CCN([*:3])CC1)N[*:1])[*:2]; DOTA = O=C(O)CN1CCN(CC(=O)O)CCN(CC(=O)*)CCN(CC(=O)O)CC1; Phe(4-CF3) = N[C@@H](Cc1ccc(C(F)(F)F)cc1)C(=O)O; Trp(5-F) = N[C@@H](Cc1c[nH]c2ccc(F)cc12)C(=O)O; Trp(7-Me) = Cc1cccc2c(C[C@H](N)C(=O)O)c[nH]c12; 1Nal = N[C@@H](Cc1cccc2ccccc12)C(=O)O; 2Nal = N[C@@H](Cc1ccc2ccccc2c1)C(=O)O; NMeChg = CN[C@H](C(=O)O)C1CCCCC1; tBuAla = CC(C)(C)C[C@H](N)C(=O)O; AllylGly = C=CC[C@H](N)C(=O)O; PAF(DOTA) = not defined here; αMeP = C[C@@]1(C(=O)O)CCCN1; NMeS = CN[C@@H](CO)C(=O)O; PAF = not defined here

T1: Biotinylated human DLL3 (human, UniProt Q9NYJ7 27-492, biotinylated (site not stated))
T1 construct: also called Delta-like ligand 3; Delta Like Canonical Notch Ligand 3
T1 sequence (looked up): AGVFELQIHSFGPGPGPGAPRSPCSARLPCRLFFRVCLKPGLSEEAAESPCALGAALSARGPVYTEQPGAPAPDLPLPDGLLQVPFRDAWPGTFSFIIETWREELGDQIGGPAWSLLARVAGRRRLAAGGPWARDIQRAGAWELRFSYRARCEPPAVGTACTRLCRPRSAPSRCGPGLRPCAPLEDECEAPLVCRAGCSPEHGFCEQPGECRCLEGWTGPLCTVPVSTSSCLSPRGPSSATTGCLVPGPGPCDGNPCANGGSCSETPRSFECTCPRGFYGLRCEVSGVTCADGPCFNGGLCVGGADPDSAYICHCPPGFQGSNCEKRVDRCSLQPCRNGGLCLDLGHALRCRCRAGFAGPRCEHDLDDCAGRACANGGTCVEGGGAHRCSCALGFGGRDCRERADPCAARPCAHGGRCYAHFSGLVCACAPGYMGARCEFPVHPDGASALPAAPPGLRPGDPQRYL


Tests used:
[1] = biological target: Biotinylated human DLL3 (human) (UniProt Q9NYJ7); experiment: SPR, biotin-hDLL3 on SA chip
Biotinylated human DLL3 [2] = biological target: T1, Biotinylated human DLL3; experiment: SPR, biotin-hDLL3 on SA chip; Cpd 59, a separate compound
Biotinylated human DLL3 [3] = biological target: T1, Biotinylated human DLL3; experiment: SPR, biotin-hDLL3 on SA chip; Cpd 58, a separate compound
[4] = biological target: DLL3 on SHP-77 cells (human) (UniProt Q9NYJ7); experiment: 177Lu-labelled peptide on SHP-77 cells, 1 h 37 C, gamma count of bound fraction
Chain of DLL3 on SHP-77 cells (human) (Q9NYJ7 27-618 limits assumed): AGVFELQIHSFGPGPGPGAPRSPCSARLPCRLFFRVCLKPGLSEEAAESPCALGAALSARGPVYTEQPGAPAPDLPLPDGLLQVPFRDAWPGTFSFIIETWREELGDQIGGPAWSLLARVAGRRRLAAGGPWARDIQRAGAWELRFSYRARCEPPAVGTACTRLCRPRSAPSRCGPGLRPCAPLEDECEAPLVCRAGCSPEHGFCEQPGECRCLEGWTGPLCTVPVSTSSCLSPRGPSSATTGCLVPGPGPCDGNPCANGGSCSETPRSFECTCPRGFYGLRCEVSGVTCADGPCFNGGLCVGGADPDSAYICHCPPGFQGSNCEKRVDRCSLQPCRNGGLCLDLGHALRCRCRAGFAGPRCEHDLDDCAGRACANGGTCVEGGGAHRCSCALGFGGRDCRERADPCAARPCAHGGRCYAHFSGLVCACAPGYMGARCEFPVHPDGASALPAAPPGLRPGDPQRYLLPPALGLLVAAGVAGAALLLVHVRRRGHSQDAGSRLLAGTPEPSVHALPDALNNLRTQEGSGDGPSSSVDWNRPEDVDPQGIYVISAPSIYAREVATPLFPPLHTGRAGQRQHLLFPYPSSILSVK

Biotinylated human DLL3 [5] = biological target: T1, Biotinylated human DLL3; experiment: SPR, biotin-hDLL3 on SA chip; Cpd 56, a separate compound

Row | % Binding [4] | Binder | also measured
1 |  | Ac-[Ala(piperidin-4-yl)]SDC[1Nal][NMeChg][PAF](DOTA)[Trp(7-Me)]NC[αMeP]FD-NH2 (disulfide 4-10; reading uncertain; also: printed as Ac-[3-(4-piperidinyl)-Ala]-S-D-C(3)-(1Nal)-(NMe-Chg)-[PAF(DOTA)]-(7Me-W)-N-C(3)-(aMe-P)-F-D-CONH2; (3)=disulfide) [Cpd #188] | Kd [1]: > 30 nM
2 |  | Ac-MSDC[Phe(4-CF3)]LQWNCPFD[dK](DOTA)-NH2 (disulfide 4-10; SMILES CSCC[C@H](NC(C)=O)C(=O)N[C@@H](CO)C(=O)N[C@@H](CC(=O)O)C(=O)N[C@H]1CSSC[C@@H](C(=O)N2CCC[C@H]2C(=O)N[C@@H](Cc2ccccc2)C(=O)N[C@@H](CC(=O)O)C(=O)N[C@H](CCCCNC(=O)CN2CCN(CC(=O)O)CCN(CC(=O)O)CCN(CC(=O)O)CC2)C(N)=O)NC(=O)[C@H](CC(N)=O)NC(=O)[C@H](Cc2c[nH]c3ccccc23)NC(=O)[C@H](CCC(N)=O)NC(=O)[C@H](CC(C)C)NC(=O)[C@H](Cc2ccc(C(F)(F)F)cc2)NC1=O) [Cpd #59] | Kd (Biotinylated human DLL3 [2]): 149 nM
3 |  | Ac-MSDC[Trp(5-F)]LQWNCPFD[dK](DOTA)-NH2 (disulfide 4-10) [Cpd #58] | Kd (Biotinylated human DLL3 [3]): 42 nM
4 | 6% | Ac-[Ala(piperidin-4-yl)]SD[AllylGly][1Nal][tBuAla][PAF(DOTA)][2Nal]N[AllylGly][αMeP]FD-NH2 (staple 4-10; reading uncertain; also: 177Lu chelated) [[177Lu]Lu-Cpd #200] | 
5 | 9% | Ac-[Ala(piperidin-4-yl)][NMeS]NC[1Nal][tBuAla][PAF(DOTA)][2Nal]DC[αMeP]FD-NH2 (disulfide 4-10; reading uncertain; also: 177Lu chelated, printed as Ac-[3-(4-piperidinyl)-Ala]-(NMe-Ser)-N-C(3)-(1Nal)-(t-Bu-Ala)-[PAF(DOTA)]-(2Nal)-D-C(3)-(aMe-P)-F-D-CONH2; (3)=disulfide; 177Lu chelated) [[177Lu]Lu-Cpd #192] | 
6 |  | Ac-MSDC[1Nal]LQWNCPFD[dK](DOTA)-NH2 (disulfide 4-10; SMILES CSCC[C@H](NC(C)=O)C(=O)N[C@@H](CO)C(=O)N[C@@H](CC(=O)O)C(=O)N[C@H]1CSSC[C@@H](C(=O)N2CCC[C@H]2C(=O)N[C@@H](Cc2ccccc2)C(=O)N[C@@H](CC(=O)O)C(=O)N[C@H](CCCCNC(=O)CN2CCN(CC(=O)O)CCN(CC(=O)O)CCN(CC(=O)O)CC2)C(N)=O)NC(=O)[C@H](CC(N)=O)NC(=O)[C@H](Cc2c[nH]c3ccccc23)NC(=O)[C@H](CCC(N)=O)NC(=O)[C@H](CC(C)C)NC(=O)[C@H](Cc2cccc3ccccc23)NC1=O) [Cpd #56] | Kd (Biotinylated human DLL3 [5]): 1.13 nM
7 | 7% | Ac-[dA][NMeS]D[AllylGly][1Nal][tBuAla][PAF(DOTA)][2Nal]N[AllylGly][αMeP]FD-NH2 (staple 4-10; reading uncertain; also: 177Lu chelated) [[177Lu]Lu-Cpd #195] | 
8 | 10% | Ac-[Ala(piperidin-4-yl)][NMeS]DC[1Nal][tBuAla][PAF(DOTA)][2Nal]NC[αMeP]FD-NH2 (disulfide 4-10; reading uncertain; also: 177Lu chelated, printed as Ac-[3-(4-piperidinyl)-Ala]-(NMe-Ser)-D-C(3)-(1Nal)-(t-Bu-Ala)-[PAF(DOTA)]-(2Nal)-N-C(3)-(aMe-P)-F-D-CONH2; (3)=disulfide; 177Lu chelated) [[177Lu]Lu-Cpd #191] | 
